Test results as given in article PMC12218847 (Nature Communications, 2025).

Assays:
[1] = biological target: His-tagged potato StISA1 (residues 48–793) (potato); assay: AUC
[2] = biological target: the molecule itself; assay: AUC

| Molecule | stoichiometry N [1] | stoichiometry N [2] |
| --- | --- | --- |
| His-tagged potato StISA1 (residues 48–793) (enzyme) | 2 | – |
| His-tagged OsISA1 (amino acids 55–803) (enzyme, Oryza sativa (rice), UniProt D0TZF0 55-803, looked up) SVASAVEVGVGEDEEEGVEEEEEEVEAVVMPERYALGGACRVLAGMPAPLGATALDGGVNFAVYSAGASAASLCLFTPDDLEADEVTEEVPLDPLFNRTGNVWHVFIEGELHNMLYGYRFDGMFAPHCGQYFDVSNVVVDPYAKAVISRGEYGVPGPGGDCWPQMAGMIPLPYSTFDWQGDLPLRYPQKDLVIYEMHLRGFTKHSSSNVEHPGTYIGAISKLDYLKELGVNCVELMPCHEFNELEYFSCSSKMNFWGYSTINFFSPMIRYSSGGIRNCGRDAINEFKTFVREAHKRGIEVIMDVVFNHTAEGNEKGPILSFRGIDNSTYYMLAPKGEFYNYSGCGNTFNCNHPVVREFIVDCLRYWVTEMHVDGFRFDLASIMTRGCSLWDPVNVYGSPVEGDMTTTGTPLATPPLIDMISNDPILGDVKLIAEAWDAGGLYQVGQFPHWKIWSEWNGKYRDIVRQFIKGTDGFAGGFAECLCGSPHLYQAGGRKPWHSINFVCAHDGFTLADLVTYNKKYNSSNGEDNRDGENHNLSWNCGEEGEFAGLSVKRLRKRQMRNFFVSLMVSQGVPMFYMGDEYGHTKGGNNNTYCHDHYVNYFRWDKKEESSDLQRFCSLMTKFRKQCESLGLADFPTAQRLHWHGHQPGKPDWSETSRFVAFSTKDETKGEIYVAFNASHLPAVVGLPERPGYRWEPLVDTGKPAPYDFLTDDLPDRAHAVHLFSHFLNSNLYPMLSYSSIILELQPDD | – | 2 |
| Arabidopsis AtISA1 (residues 44–783) with C-terminal 6×His-tag (enzyme, UniProt O04196 44-783, looked up) AKDRRSNEAENIAVVEKPLKSDRFFISDGLPSPFGPTVRDDGVNFSVYSTNSVSATICLISLSDLRQNKVTEEIQLDPSRNRTGHVWHVFLRGDFKDMLYGYRFDGKFSPEEGHYYDSSNILLDPYAKAIISRDEFGVLGPDDNCWPQMACMVPTREEEFDWEGDMHLKLPQKDLVIYEMHVRGFTRHESSKIEFPGTYQGVAEKLDHLKELGINCIELMPCHEFNELEYYSYNTILGDHRVNFWGYSTIGFFSPMIRYASASSNNFAGRAINEFKILVKEAHKRGIEVIMDVVLNHTAEGNEKGPIFSFRGVDNSVYYMLAPKGEFYNYSGCGNTFNCNHPVVRQFILDCLRYWVTEMHVDGFRFDLGSIMSRSSSLWDAANVYGADVEGDLLTTGTPISCPPVIDMISNDPILRGVKLIAEAWDAGGLYQVGMFPHWGIWSEWNGKFRDVVRQFIKGTDGFSGAFAECLCGSPNLYQGGRKPWHSINFICAHDGFTLADLVTYNNKNNLANGEENNDGENHNYSWNCGEEGDFASISVKRLRKRQMRNFFVSLMVSQGVPMIYMGDEYGHTKGGNNNTYCHDNYMNYFRWDKKEEAHSDFFRFCRILIKFRDECESLGLNDFPTAKRLQWHGLAPEIPNWSETSRFVAFSLVDSVKKEIYVAFNTSHLATLVSLPNRPGYRWEPFVDTSKPSPYDCITPDLPERETAMKQYRHFLDANVYPMLSYSSIILLLSPIKDP | – | 2 |
| His-tagged maize ZmISA1 (residues 45–789) (enzyme, UniProt O22637 45-789, looked up) AAARPVAEAVQAEEDDDDDDEEVAEERFALGGACRVLAGMPAPLGATALRGGVNFAVYSSGASAASLCLFAPGDLKADRVTEEVPLDPLLNRTGNVWHVFIHGDQLHGMLYGYRFDGVFAPERGQYYDVSNVVVDPYAKAVVSRGEYGVPAPGGSCWPQMAGMIPLPYNKFDWQGDLPLGYHQKDLVIYEMHLRGFTKHNSSKTKHPGTYIGAVSKLDHLKELGVNCIELMPCHEFNELEYFSSSSKMNFWGYSTINFFSPMARYSSSGIRDSGCGAINEFKAFVREAHKRGIEVIMDVVFNHTAEGNEKGPILSFRGIDNSTYYMLAPKGEFYNYSGCGNTFNCNHPVVREFIVDCLRYWVTEMHVDGFRFDLASILTRGCSLWDPVNVYGSPMEGDMITTGTPLVAPPLIDMISNDPILGNVKLIAEAWDAGGLYQVGQFPHWNVWSEWNGKYRDTVRQFIKGTDGFAGAFAECLCGSPQLYQAGGRKPWHSINFVCAHDGFTLADLVTYNSKYNLSNGEDNRDGENHNLSWNCGEEGEFASLSVRRLRKRQMRNFFVCLMVSQGVPMFYMGDEYGHTKGGNNNTYCHDHYVNYFRWDKKEEQSSDLYRFCRLMTKFRKECESLGLEDFPTSERLKWHGHQPGKPDWSEASRFVAFTMKDETKGEIYVAFNTSHLPVVVGLPERSGFRWEPVVDTGKEAPYDFLTDGLPDRAVTVYQFSHFLNSNLYPMLSYSSIILVLRPDV | – | 2 |
